Experimental findings from patent publication US20130231465A1 (HEMHOLTZ ZENTRUM MUNCHEN DEUTCHES FORSCHUNGSZENTRUM FUR …, published 2013) are described below.

For the experiment, the target named is CA-XII as used in the enzyme inhibition assay (Homo sapiens (Human), UniProt O43570 25-301, limits assumed). Kind of experiment: cell-based or functional assay.
Chain of CA-XII as used in the enzyme inhibition assay (O43570 25-301 limits assumed): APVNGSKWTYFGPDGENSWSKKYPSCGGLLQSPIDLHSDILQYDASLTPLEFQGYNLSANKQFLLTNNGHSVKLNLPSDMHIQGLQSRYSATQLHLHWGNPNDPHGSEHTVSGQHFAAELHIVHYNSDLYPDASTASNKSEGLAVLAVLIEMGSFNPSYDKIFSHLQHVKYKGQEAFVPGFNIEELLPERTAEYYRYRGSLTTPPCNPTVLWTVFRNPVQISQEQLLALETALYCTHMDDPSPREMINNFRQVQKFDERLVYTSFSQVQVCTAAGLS

B1: EXO 6A10 (antibody, V domains shown)
VH: EVKLEESGPGLVQPSETLSLTCTVSGFSLTTYSVSWVRQPSGKGPEWMGRMWYDGDTVYNSALKSRLSISRDTSKNQVFLKMNSLETDETGTYYCTRDFGYFDGSSPFDYWGQGVMVTVSS
VL: DIVMTQTPATLSVTPGESVSLSCRASQGISTSIHWYQQKSNESPRLLIKFASQSISGIPSRFSGSGSGTDFTLSINRVESEDFSVYFCQQTYSLPYTFGAGTKLELK
Turning to B1, the “inhibition of CA-XII (enzyme activity), IC50” value was 6.14 nM.
